# The domain aggregation screens of Martell et al. (2025)
# Experiment: soluble fraction after stress (log2 fold change); higher = more stays soluble; pooled small domains, quantitative proteomics
# Settings: stress: 50 degC
# Summary of the method: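 Each library was heated to 50°C as a stress step. The libraries, made up of small protein domains, were pooled and analysed at high throughput by quantitative proteomics. The reported value is the base-two logarithm of the fold change in each protein's soluble amount after stress, taken as a measure of aggregation propensity. The higher the value, the more protein stays in solution.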
row,Sequence,soluble fraction (log2)
1,HMGIVAQLPTIRVNGKTLYYYDAQSGDNIYSIAEKLGVTVEDIRANNPGVADGVKPRMRLFFPTSLAK,0.165
2,HMLLTHPKRVFTYELIMELVWNEDYTFYSKKAVSNHMSNLRKKLKVTPDALDYIKNIVGVGYKFEA,-0.759
3,HMDYSWNFFIGFSVVDKVAGNLGTIEEIDDKTINTLFLVKNDDEDLIIPATEDFVEKIDAKKRILYLNLPE,-1.56
4,HMNVKVYATIDGDNFKVSGLKPGSNVRVYSSNGSAVFEKKAGDSEMIIPAGAWTKGIYVISADDQSIKVT,-0.109
5,HMEAPPHEALSNREFQVLQLLSQGRSVTQIAHQLTLSANTISTYRARIFDKLGLHNPADLYAYAARHGLM,-0.676
6,HMAEVAFEEQNIEQISNLLLRIQAIFAELMTALDKEKGGEIADNLERLYVFFLEKLGDANVRKDPAP,0.00759
7,HMKTGTVQDFIAKYGMSSKSPSSWFNSLTQIQKAEAKALKAQSGLTWNEWYEKNIYNGDGSNL,0.0263
8,HMGTVKWFNATKGFGFIVPSDGGKDVFVHITAVQKAGLQGLNEGQKVSYEVAMERGKAAATNLR,-0.726
9,HMAPADLSPEERVVLDALALEPVHVDALAAKLGRRSEELLTSLTLMEMRGLAVAHAGSRYSRATMT,0.0694
10,HMQVSIGERVKLARMSAGLNQRQLGKEMGMSAMAISKYETGEVVPNSRVLIQLSQTLHVPLDFFFRS,-2.69
11,HMDTIAEFIAELTPLEQKVFHVYYEKGQSLKDTAQQAEITSTSARGALDRIRAKGRHFHLAVILFIG,-0.622
12,HMQPPLTPRELGVLQWAAEGKTTRDTSAILQIHQRTVEMHLKSAREKLDALNTTHAVARALAHGFILPPS,-0.0855
13,HMAKSDLNYLDFKSKLEAGEIAKASVIRNEDTFKVTLQNGEVYNVTSPDYEDFRKELLEAGVDIQVSK,0.114
14,HMKVSDPEAIKLIEQAQVKVIPFLDISEAADIQIALEELKNSEGTGQTDSAKVRLRNLLSPFSYL,0.269
15,HMLLNSLIDTLAAEKATVVPGTEVFKLYDTYGFPWELTEEIASERGFTIDHEGFEAAMKEQRERAREARV,-0.0257
16,HMGAKVFTVPNLIGKYAIEAGIILKKEGLSEGEVKEENSDKYAAGQIIDQYPAADSPAKENDKINYVVSIG,0.00836
17,HMRAGEAVTGQVIGVKEDEIILSIAGSKSEGIITRSEFTNEPNVDLTTKVSVGDELEVKVLKVNDGEGMAS,-0.171
18,HMQKYEDIINVTRERLQNKFYSQTVIPTDDDIYIWLDKVAILEEIKLSKEDRQMLFNLLKKEAT,-0.451
19,HMSDPELAIPRVVGLSGNDAQAALVKAGFSAVTVVTVKNSEVTSEQVTHVVPAEGAKAKASTPVTVVVSSS,-0.0196

row,Sequence,soluble fraction (log2)
1,HMPLKLIDVYLGRHGKKRYDVFKETGLSQQTLASANGKPAAALTGRILQAIGRTVGETPGRVLDEMLMIEQ,-0.691
2,HMAKYEVVAKDIISRIKQNEFETTLKLPTEDEMIEYYQVSRNTVRSALKLLTSQGIIFSRQGSGFYIRQRS,-0.677
3,HMGDHYTALGLSIDATPEEIRSAYFLAARRSHPDANPDAQTTEWFLRVQEAYDILSNPRRRAEYDASLP,-0.554
4,HMQEQSSYVGQFGTAATTLRPSGTVELEDGTRIDVVTVGEFIEKGEPVQVVRKDGTWLVVEKRRSK,0.286
5,HMAVGTASNLIGKDIEAYAPIDGSQSSDDTKTISGKVESVHIKDGVVYMNVKDSQSENIIEVEYGALIKVN,-0.498
6,HMGVLDFSAQLLKHLEMNGGQTPLGDKSPAEEIYAVFGVSKKVFKKAVGDLYRKRLIEISSNGIRMTS,-0.968
7,HMIDFIGLEAKLLSTISGEKMGNAEVIVDGNVMNIYVKSLDTSEIKFRENVLIIKQSDDKNYYLVAKP,-0.453
8,HMYRYTTFKVKEADTLLPFIQKSLNGISHNRAKAILTGGGVLVDKKITRAYDFALRPGMTVEISKSKP,-0.103
9,HMLPANGEAIYHYLASGAIKGVGPVTAQRIVDKFGEDTFDVLENNPLWLAEIKGITRKTAENIGAAFAAQF,≥ 0.62
10,HMDDSPTARALRTLDLIHNRPGITAAELADRLGVTERAVRRYVLTLRDAGVPVLGTPGRYGGYQVGK,-0.426
11,HMDLEIENYDLREILNLFKLDYNFDNVDLKRAQKIALKTHPDKSNLPKEYFMFFMKAFQIVQQIYYYRY,-0.47
12,HMIKEYEVLNYVTYEYDEIKKKLEEDFGIIVLMKEAYSDETPAGIIMDQDVEQGRIFKEGATNTITFTVS,-0.434
13,HMRHEDLSPAQKAAALVVAVGSENAAQVLRHLSEEEVEILAGEVARLGEVDPDVVDSVMREVYEQMMGH,-0.423
14,HMTRYEQLAAQIRQQIEDNIWQSGDRLPSLRDTVKQSGLSLMTVLQSYQLLESQGWITARPQSGYYVAHR,0.348
15,HMYHKKEKAQAANIEERIMILLSDGKHHHITEIKAIYVDEVITLNILEEMLAEEKVIIEGDMIMLVE,-3
16,HMEISEILNPPLVTAMAERYPEVDVSYYRDKYILYYESREHKITDHRRNFEKWLLVESQKEEN,-1.07
17,HMVMIPDLVGETIEDAKDILEGLGFEVEVRSEFPESDWGRPFARVTSLSPSAGQEVAKGTLVIIRSF,-0.288
18,HMKKLPEKFDYNEISGLRIEAQQKLNEFQPLNIGQASRISGVTPADISVLLVYLEQLKYSNPDLFFKLNPD,-0.798
